Article PMC12846830 (Proceedings of the National Academy of Sciences of the …, 2026)

Molecular target: the molecule itself
Assay: single-molecule photobleaching step analysis

B1: EmrE, a multidrug transporter from Escherichia coli, with a tetracysteine tag (TC-Tag) (natural protein)
chain: MNPYIYLGGAILAEVIGTTLMKFSEGFTRLWPSVGTIICYCASFWLLAQTLAYIPTGIAYAIWSGVGIVLISLLSWGFFGQRLDLPAIIGMMLICAGVLIINLLSRSTPH
modifications: FlAsH dye covalently bound to the tetracysteine tag
B1 was tested, and the “stoichiometry N” value was 2.
